{"source": "patent US20250243271A1", "about": "(ALCEA THERAPEUTICS, published 2025)", "binders": {"B1": {"name": "H07-Lib3-Pl1 (antibody, V domains shown)", "VH": "EVQLVESGGGLVQPGGSLRLSCAASGLPFSSYAMSWVRQAPGKGLELVASIGTAGDAYYPDSVKGRFTISRDNAKNSLYLQMNSLRAEDTAVYYCARVGPFWQGFAFDIWGQGTMVTVSS", "VL": "DIVMTQSPLSLPVTPGEPASISCRSSQSLLHSSGHNYLHWYLQKPGQSPQLLIYMTYNRASGVPDRFSGSGSGTDFTLKISRVEAEDVGVYYCLQTTHWPHTFGGGTKVEIK", "notes": "Tested as an antibody captured by anti-human Fc antibodies"}}, "key": {"Recombinant human Notch4 [1]": {"biological_target": "T1, Recombinant human Notch4 (human, UniProt Q99466 24-1447, limits assumed)", "T1 construct": "also called Notch4 analyte; Notch4 (antigen)", "T1 sequence": "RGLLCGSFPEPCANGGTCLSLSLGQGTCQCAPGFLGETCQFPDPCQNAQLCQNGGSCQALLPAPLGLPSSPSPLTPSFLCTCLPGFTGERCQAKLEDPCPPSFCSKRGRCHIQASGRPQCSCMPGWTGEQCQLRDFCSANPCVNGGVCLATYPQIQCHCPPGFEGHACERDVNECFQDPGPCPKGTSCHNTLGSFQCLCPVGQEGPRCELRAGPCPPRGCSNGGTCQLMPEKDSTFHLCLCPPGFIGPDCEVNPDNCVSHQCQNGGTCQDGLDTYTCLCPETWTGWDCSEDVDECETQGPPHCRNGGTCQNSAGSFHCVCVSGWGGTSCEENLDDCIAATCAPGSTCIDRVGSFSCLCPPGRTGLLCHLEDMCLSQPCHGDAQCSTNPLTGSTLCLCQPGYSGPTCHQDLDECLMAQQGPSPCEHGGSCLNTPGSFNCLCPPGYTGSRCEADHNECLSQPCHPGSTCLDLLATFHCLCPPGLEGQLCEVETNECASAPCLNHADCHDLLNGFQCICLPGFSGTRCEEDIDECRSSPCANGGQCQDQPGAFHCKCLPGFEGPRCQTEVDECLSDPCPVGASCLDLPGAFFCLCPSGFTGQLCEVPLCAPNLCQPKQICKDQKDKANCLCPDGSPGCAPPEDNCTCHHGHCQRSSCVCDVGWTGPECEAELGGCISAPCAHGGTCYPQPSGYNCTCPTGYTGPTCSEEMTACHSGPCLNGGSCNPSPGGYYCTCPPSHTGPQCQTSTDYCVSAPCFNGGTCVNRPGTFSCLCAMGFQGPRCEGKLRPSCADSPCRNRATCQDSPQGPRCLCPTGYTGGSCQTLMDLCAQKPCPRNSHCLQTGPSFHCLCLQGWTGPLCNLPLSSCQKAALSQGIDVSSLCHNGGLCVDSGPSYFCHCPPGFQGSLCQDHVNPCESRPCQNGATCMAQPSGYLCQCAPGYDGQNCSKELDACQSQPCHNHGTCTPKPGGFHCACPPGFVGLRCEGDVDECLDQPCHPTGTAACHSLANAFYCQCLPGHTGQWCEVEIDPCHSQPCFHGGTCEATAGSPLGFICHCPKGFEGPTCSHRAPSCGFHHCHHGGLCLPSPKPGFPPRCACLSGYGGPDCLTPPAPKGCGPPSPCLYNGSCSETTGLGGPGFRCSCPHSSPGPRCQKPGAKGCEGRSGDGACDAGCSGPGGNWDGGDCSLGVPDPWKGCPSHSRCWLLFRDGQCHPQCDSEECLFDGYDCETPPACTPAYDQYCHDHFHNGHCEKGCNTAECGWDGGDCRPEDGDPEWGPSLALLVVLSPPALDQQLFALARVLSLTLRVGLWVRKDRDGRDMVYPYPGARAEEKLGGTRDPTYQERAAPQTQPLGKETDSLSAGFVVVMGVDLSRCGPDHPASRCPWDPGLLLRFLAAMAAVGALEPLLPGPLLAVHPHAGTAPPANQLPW", "assay": "SPR, antibody captured by anti-human IgG Fc on HC30M chip, Notch4 as analyte", "procedure": "Binding kinetics measurements. Following expression and purification, clones were characterized using surface plasmon resonance (SPR) to determine binding kinetics and epitope binding activity. HC30M chips (polycarboxylate hydrogel surfaces having medium charge density and 30 nm coating thickness) were coated with anti-human Fc antibodies (unlabeled goat anti-human IgG Fc from Southern Biotech) to capture the candidate antibodies. Candidate antibodies were diluted to 10 μg/mL in HEPES-buffered saline Tris-EDTA (HBSTE)) and exposed to the surfaces for 15 minutes. After stabilizing baseline using HBSTE, Notch4 analytes were injected sequentially from a lowest concentration of 0.41 nM to a highest concentration of 300 nM. (Notch4 was diluted in HBSTE+0.5 mg/mL bovine serum albumin (BSA) to obtain a series of 3-fold dilutions.) To assess specificity, experiments were also run using Notch2 as an analyte in a single injection at 100 nM in HBSTE+0.5 mg/mL."}, "Recombinant human Notch4 [2]": {"biological_target": "T1, Recombinant human Notch4", "assay": "SPR, antibody captured by anti-human polyclonal Fc antibodies on CM5 chip, Notch4 as analyte at 300 nM; Table 4 SPR, Notch4 as analyte", "procedure": "(§1) Binding kinetics measurements. H07-Lib3 binding kinetics were determined using surface plasmon resonance (SPR). CM5 chips were coated with anti-human polyclonal Fc antibodies (Southern Biotech) to capture candidate antibody. Candidate antibody was diluted in HEPES-buffered saline with 0.005% surfactant P20 (HBS-P) and exposed to the surfaces for 20 minutes. […] To assess specificity, experiment was also run using Notch3 as an analyte at 300 nM."}, "Recombinant human Notch4 [3]": {"biological_target": "T1, Recombinant human Notch4", "assay": "SPR, antibody captured by anti-human polyclonal Fc antibodies on CM5 chip, Notch4 as analyte at 300 nM", "procedure": "as §1"}, "[4]": {"biological_target": "T2, keyhole limpet hemocyanin", "T2 construct": "Probe of the polyreactivity assay; also called KLH", "assay": "polyreactivity assay, reactivity normalized to the highest value for each probe", "procedure": "(§2) Polyreactivity assays. The non-specific reactivity of H07-Lib3 was evaluated towards cardiolipin, keyhole limpet hemocyanin (KLH), lipopolysaccharides (LPS), single-stranded DNA (ssDNA), double-stranded DNA (dsDNA), insulin, and bovine serum albumin (BSA). Additional therapeutic antibodies (bococizumab, efalizumab, gantenerumab, ibalizumab, lenzilumab, and panitumumab) were included in experiments for comparison. The reactivity percentage of each antibody was normalized to the highest reactivity value for each probe. Threshold for acceptable polyreactivity was set to 30% for all probes."}, "bovine serum albumin": {"biological_target": "T3, bovine serum albumin (bovine, UniProt P02769 25-607)", "T3 construct": "Probe of the polyreactivity assay; also called BSA", "T3 sequence (P02769 25-607 limits assumed)": "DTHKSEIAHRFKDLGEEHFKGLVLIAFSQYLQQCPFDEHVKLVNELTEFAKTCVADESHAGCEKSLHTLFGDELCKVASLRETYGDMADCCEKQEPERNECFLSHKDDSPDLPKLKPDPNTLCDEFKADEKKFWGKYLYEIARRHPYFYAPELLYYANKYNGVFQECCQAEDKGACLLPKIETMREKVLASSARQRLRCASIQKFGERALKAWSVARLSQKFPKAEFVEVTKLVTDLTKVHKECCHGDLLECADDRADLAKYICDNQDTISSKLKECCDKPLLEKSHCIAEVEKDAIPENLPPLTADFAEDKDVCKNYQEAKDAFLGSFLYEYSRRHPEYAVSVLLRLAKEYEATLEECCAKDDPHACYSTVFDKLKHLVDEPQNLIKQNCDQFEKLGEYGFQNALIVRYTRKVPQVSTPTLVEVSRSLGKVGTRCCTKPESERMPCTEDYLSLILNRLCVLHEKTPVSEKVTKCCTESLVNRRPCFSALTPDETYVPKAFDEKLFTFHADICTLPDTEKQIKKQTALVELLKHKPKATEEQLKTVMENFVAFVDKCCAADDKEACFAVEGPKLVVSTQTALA", "assay": "polyreactivity assay, reactivity normalized to the highest value for each probe", "procedure": "as §2"}, "insulin": {"biological_target": "T4, insulin", "T4 construct": "Probe of the polyreactivity assay", "assay": "polyreactivity assay, reactivity normalized to the highest value for each probe", "procedure": "as §2"}}, "data": [{"binder": "B1", "values": [{"measurement": "Kd", "setting": "Recombinant human Notch4 [1]", "result": 1.4, "unit": "nM"}, {"measurement": "Kd", "setting": "Recombinant human Notch4 [2]", "result": 16.6, "unit": "nM"}, {"measurement": "koff", "setting": "Recombinant human Notch4 [3]", "result": 0.00164, "unit": "s⁻¹"}, {"measurement": "kon", "setting": "Recombinant human Notch4 [3]", "result": 98300, "unit": "M⁻¹ s⁻¹"}, {"measurement": "normalized reactivity", "setting": "[4]", "result": "< 30", "unit": "%"}, {"measurement": "normalized reactivity", "setting": "bovine serum albumin", "result": "< 30", "unit": "%"}, {"measurement": "normalized reactivity", "setting": "insulin", "result": "< 30", "unit": "%"}]}]}
